Assay: soluble on expression in E. coli; label from the status in PepcDB or PDB records

Sequence | soluble on expression in E. coli
MTASRPAFLHLSPADTVGIALRALPSGEEALGVTLRADVPLGHKFAVVAMPAGTAVVKYGQVMGVATADIAPGDHVHSHNCAMSDSHSNRADAKGTLHAAPGRQTFQGYLRPDGRVGTRNYIGIMASVNCSSTVCNAIAEAANRTLLPRFPGIDGFAPIVHDQGCGMASAGEGFDALVRVLKGYRDHPNFGGVLIVGLGCEVNQLTLYKRTDWTEERIGIFNIQDVGGSASAVRRALELLEPICAAADQDRRSEQPVSKLVLGMQCGGSDGFSGITANPALGVASDMLVAAGGTSILSETPEIYGAEHLLIARADAETGRRIEGMIDWWRDYAAKNGASLDNNPSPGNKRGGLTTILEKSLGAVAKGGLSPLAGAFAYAEPIRIPGLVYMDSPGYDPVAATGQVASGANLIAFTTGRGSCFGAKPAPSIKLASNSDLARRMPEDMDIDCGVVVEEGVSLEEMGRRIYDLLLDTASGKRSKSEEFGYGDNEFVPWKIGATL | not soluble
PLNRLGHKIYQHSGKWLQETAAEKLNQRDQLINPGHAQVLILGMGRIGTGAYDELRARYGKISLGIEIREEAAQQHRSEGRNVISGDATDPDFWERILDTGHVKLVLLAMPHHQGNQTALEQLQRRNYKGQIAAIAEYPDQLEGLLESGVDAAFNIYSEAGSGFARHVCKQLEPQFTSIK | soluble
MGHHHHHHSHMDKQSSAGGVKRSVPCDSNEANEMMPETPTGDSDPQPAPKKMKTSESSTILVVRYRRNFKRTSPEELLNDHARENRINPLQMEEEEFMEIMVEIPAK | not soluble
MSIQIPRGTQDILPGTVELWQYIEGQAREICRRYNYKEIRTPIFEHTELFLRGVGDTTDIVQKEMYSFQDRGERSLTLRPEGTAPVVRSYVENKMFGDATQPTKLYYIGQMFRYERPQAGRYRQFVQFGIEAIGSNDPAIDAEVIALAVEFYRGMGLKNIKVVLNSLGDAASRQAHRDALIAHFEPRIGEFCSDCQSRLEKNPLRILDCKKDRNHELMGTAPSITEYLNEDSAVYYDKVQELLTMMDVPFEKDPNLVRGLDYYQHTVFEIMSEAEGFGAITTLSGGGRYNGLVQEIGGPEMPGIGFAMSIERLIMALKAENIELPIEHSIDCYVVALGEKAKDHAAKVAFDLRKAGLAVEKDYLDRKMKAQFKSADRLKAKFVAVLGEDELDKGIINLKDMATGEQEEVALDVFASYVAEKLI | soluble
MEKLYDVIVVGAGTSGMMAAISAAEQGARVLLIEKNKKAGKKLLMTGGGRCNVTNNRPVDDLIAHIPGNGKFLYSTFAQWNNFDIMNFFESQGVHLKEEDHGRMFPVTNKSKTIIEALLNRLKELDVTLLFSTRVEKLIHKEHKIYGIRTEFEEFHAPAIILTTGGRTYPSTGSTGDGYKIVKRVGHTVTPLYATESPLISDEPYIQEKTLQGLSLQDITLRVLNKKGRVLTEHTMDLLFTHFGISGPAALRCSSFVNKELEKTGEPVTLSLDCFPTQTKQELIHILTEKSKATKKNLVNAWHGILPERLLVFFLERLEMDHLTGQQASQKQIQDFVQLCKEFKLSINKTFPIEKSFVTGGGVSLKEIYPKTLESKIIDGLYFAGELLDVNGYTGGFNITAAFATGHVAGMNAGQRA | soluble
DHIPGTDIDLTVPYAAEGPGPTVNTLGDVDGKPVVNVSGAEIHKTTGNLNMTTVSVRTHLTLGQALGRWLIAHDTLVPIEQIFPQGKTPEEVDEVNKAAFSTSEASATIAAMNQLHKPVDT | not soluble
MGSDKIHHHHHHMNTLLKQLKPYPFARLHEAMQGISAPEGMEAVPLHIGEPKHPTPKVITDALTASLHELEKYPLTAGLPELRQACANWLKRRYDGLTVDADNEILPVLGSREALFSFVQTVLNPVSDGIKPAIVSPNPFYQIYEGATLLGGGEIHFANCPAPSFNPDWRSISEEVWKRTKLVFVCSPNNPSGSVLDLDGWKEVFDLQDKYGFIIASDECYSEIYFDGNKPLGCLQAAAQLGRSRQKLLMFTSLSKRSNVPGLRSGFVAGDAELLKNFLLYRTYHGSAMSIPVQRASIAAWDDEQHVIDNRRLYQEKFERVIPILQQVFDVKLPDASFYIWLKVPDGDDLAFARNLWQKAAIQVLPGRFLARDTEQGNPGEGYVRIALVADVATCVKAAEDIVSLYR | not soluble
MTGFKVSSFFYILALSRFFNAGRERACDKLKITVTHLYWFIIRKLLLHEVHVHVSRVCNVSFILSPCLFRNFFTLSLHVLYVMYEQALTPEFFRQWWDIIQSK | soluble
MTSRKAKESAHMSASDIISTFNDFFTNFPANKSFDMTYKVYLKDLADADEELTSSRRNSELNLTENKPITIASCGFVPQMMSSSTVKNLSLSSSATNFNSEKSEIGSKITMNPAKQVLKGRNTRKKRSMVDLSQINKIFGRDYNPPAPSSKSPPTIYVNLGVIYSSSSSHASDASSISSHTSVSSTFTEKQHEFGKLVPSGTDGSLELFVKVADCFD | not soluble
MDEIWFAGIDLGGTTIKLAFINQYGEIQHKWEVPTDKTGDTITVTIAKTIDSKLDELQKPKHIIKYIGMGAPGPVDMAAGVVYETVNLGWKNYALKNHLETETGIPAVIENDANIAALGEMWKGAGDGAKDVILVTLGTGVGGGIIANGEILHGINGAGGEIGHICSIPEGGAPCNCGKTGCIETIASATGIVRIAKGKIANAKKTTRLKATEQLSARDVFEAAGENDEIALEVVDYVAKHLGLVLGNLASSLNPSKIVLGGGVSRAGELLRSKVEKTFRKCAFPRAAQAADISIAALGNDAGVIGGAWIAKNEWLKHQNCLEHHHHHH | soluble
MSLTPPRSLLHALKPFLEAGADKEALVFGAHRISFGDMAGHAAALAEVLRSKGVQKGDRVAALFPPRPEAILSLLACWLIGATWMGINPRYQRREQAQILADAGVKVLMSMTRIGKRDLEDDLASHETDLGFSVLRFAPAFAPAALPEKLPYDEVLRRWREATETLEPDSPSVVIYTSGSTGKPKGALITHAGLAFRSHTLHIDRFNLPAPTQLIDLPVNHIGALASGIGVAMASGGKMILSEQFDPGVTLRTAFAEKLAIISGVPAMLARLVEHPDFATSDLSSVKAISWGAGPINEAVLRKLLNATDALFSQQYGMTESNGPIVFTPPTRDVEVLLNTTGKPDPRLELRIADESGQPLPDGEEGEVQIRHPHPFAGYLGNAEASAAAFTADGFLHTGDLAMVREDGYLVFCGRSKEMYKSGGFNVYPREIEIALEAHPAIRAAAVLGVDDEQWGQVGHAFVELASPLTSDDITGWCKARLADFKVPKRVSVIDAMPRTPVDKVDRMQLAELAARGEGHHHHHH | soluble
MGSDKIHHHHHHMWTSKQQQALDHLAATPSLLVVSDFDGTLAGFSHDAMQVPVNHVAMAALQQLTSLPSTRVALLSGRDVQGLIQVSGAAAPMIVAGSHGAESTEGGLVLNEDQQAALSAVTAALEEIATSVPGAFVEHKPYHRVLHVIRVADQQRARAALDRALALEIPGAKIAEGKWIAEASVVDFTKGTWIKAAQEQYRPSVTLFLGDDTTDENGFAVLGCNDVGIKVGAGDTCATVRLESIDRVGQFLSSLADARSAAQQ | not soluble
MRAIDLNSDLGESFGAWSMGDDAAMLDIVTSANVACGFHAGDPAGILRTLKAAAAKNVTIGAHVSYPDKVGFGRRNMDVASDELTADVIYQIGSLQGLAKAAGTSVRYVKPHGALYNTIAHDRRQAMAVIEAIRAIDPALVLVALAGSTLIELARSEGLQCIAEAFADRAYTPQGTLVSRREPGAVLHDPELVAQRMLRLVQSGSIEAIDGSLVRIEADSICVHGDSPAAVEMARELRRVLEQASTSLQPFAGKRSLEHHHHHH | not soluble
MPLCLKINKKHGEQTRRILIENNLLNKDYKITSEGNYLYLPIKDVDEDILKSILNIEFELVDKELEEKKIIKKPSFREIISKKYRKEIDEGLISLSYDVVGDLVILQISDEVDEKIRKEIGELAYKLIPCKGVFRRKSEVKGEFRVRELEHLAGENRTLTIHKENGYRLWVDIAKVYFSPRLGGERARIMKKVSLNDVVVDMFAGVGPFSIACKNAKKIYAIDINPHAIELLKKNIKLNKLEHKIIPILSDVREVDVKGNRVIMNLPKFAHKFIDKALDIVEEGGVIHYYTIGKDFDKAIKLFEKKCDCEVLEKRIVKSYAPREYILALDFKINKK | soluble
MIERLFRLIKPGTRQQMVCFHHAGGSAEYFLPWKTDLPPDTALYAIQLPGHGGRINESLLHNLHQMADVIAQSYVYLPVRDTFFFGHSMGAALAFEVALRLQKAGRGITTLYVSGRLPPHKNTNTDFYRQSDVSILNKITQLGGSTLDYQQPELKDLLLPIFRADFTAIETYQRQCTELLNCSVMACVGEQDTEVSVRQMSEWCQVTKGAFRLQVFPGGHFYLNHAQKRLLAFINQSVAAQQSSKECKEYHDEI | not soluble
MTHPVAVKACLFDMDGLLINTEDIYTETLNETLAEFGKGPLTWDVKIKLQGLPGPKQEKG | soluble
SMPSQQRVKRWGFSFDEILKDQVGRDQFLRFLESEFSSENLRFWLAVQDLKKQPLQDVAKRVEEIWQEFLAPGAPSAINLDSHSYEITSQNVKDGGRYTFEDAQEHIYKLMKSDSYARFLRSNAYQDLLLAKKKGKSLAGKRLTGLMQ | soluble
MCGIVGFIGEQDAKEILLKGLEKLEYRGYDSAGIAVQAENGVVVYKEKGRIAKLREIVDENVAASVGIGHTRWATHGVPSKVNAHPHQSTSKRFTLVHNGVIENYELVKKEYLQDVTFVSETDTEVIVQLMEQQVSTGLSVEEAFRNTLSLLHGSYAIGLLDAENPNMIYVAKNKSPLLVGVGDNFNVVASDAMAMLQVTDQFIELMDKEIVIVMKESITIKNLQGETIERAPFTAELDASDIEKGTYPHFMLKEIDEQPLVIRNIIQKYQDENGEIELDQDIRNAILDSDRIYIIACGTSYHAGLVGKQFIEKFAKMPVEVHVASEFSYNMPLLTERPFFIYISQSGETADSRAVLVQTNEMGHKALTITNVPGSTLSREADYTLPLYAGPEIAVASTKAYTAQLAVLSILAADIAKAKGEVLGFDLTHELGLVANAMIELCDQKEEMDALAKQFLATTRNCFFIGRSVDFYVGLEGALKLKEISYIQAEGFAGGELKHGTIALIENGTPVIALATQEHVNLGIRGNVKEVVARGANPCIISMKGLEMEGDSFVLPAVHEALAPLVAVIPLQLISYYAALHRECDVDKPRNLAKSVTVE | not soluble
MGSDKIHHHHHHMECLLKTTSSVRFGSIHHPCECPANEACPFSIMSLFKRKAASSLETLALAKVGETVRKRLSADPGVYRIPLDDLEIFGVADFFSAEECAKLMAIVDSVARPSPTYSGTDASGRTSYTGDVDPFDPFVLMLQRRIDDLMGIDPSFGETIQGQRYAPGQEFRGHYDHFLPSQPFWDAEQKRGGQRSWTAMAYLNAVEEGGQTEFARVNLSIPPQPGALLIWNNMKPDGTPNANAMHAGMPVVRGTKYVLTKWYRSRPWH | not soluble
MGSDKIHHHHHHMLRDLVYPPGCATCGLPVAKAGSLCSDCWCSVRFIERPYCEILGLPFGFDPGQGMVCAEAIANPPVFDRLRAAVVHDGAARDLVHRLKYGDRTDLAPMMAHWMIRAGGQELLRADAILPVPLHRWRLFSRQYNQSAELGRALAGLSDKPFLPGVLTRVKRTQKQVGLTEKARADNVRGAFKVAENRRDQVFGRHLVLVDDVYTTGATVSAATRALKRAGAVEVTVLTFAMALVTPI | not soluble
MAHHHHHHMTSSSVTPDQVLAFTAPTERFLCPLTANKYGVEFYQFTIRDIEQNKVLFEVGEAPDGSADGSVTDMLARVAQLSEEEAAAARTIRYRFAPSFLRKTAVGAKLVFGVNGDQPVPKFRMIERHYFRNVLIKSFDFEFGFCIPHSTNTWEAIYDMPSLNPEWEEAIVASPFEMASDSFYFVGNELIMHNKAYYAYDGEEL | not soluble

Source: the DeepSol protein solubility set
